Assay results from patent US6942988 (Johns Hopkins, dated 2005).

T1: full-length mouse Ptc (patched receptor) (mouse, UniProt Q61115 1-1434)
T1 construct: whole, on cells; Predicted mass 159 kDa
T1 sequence (looked up): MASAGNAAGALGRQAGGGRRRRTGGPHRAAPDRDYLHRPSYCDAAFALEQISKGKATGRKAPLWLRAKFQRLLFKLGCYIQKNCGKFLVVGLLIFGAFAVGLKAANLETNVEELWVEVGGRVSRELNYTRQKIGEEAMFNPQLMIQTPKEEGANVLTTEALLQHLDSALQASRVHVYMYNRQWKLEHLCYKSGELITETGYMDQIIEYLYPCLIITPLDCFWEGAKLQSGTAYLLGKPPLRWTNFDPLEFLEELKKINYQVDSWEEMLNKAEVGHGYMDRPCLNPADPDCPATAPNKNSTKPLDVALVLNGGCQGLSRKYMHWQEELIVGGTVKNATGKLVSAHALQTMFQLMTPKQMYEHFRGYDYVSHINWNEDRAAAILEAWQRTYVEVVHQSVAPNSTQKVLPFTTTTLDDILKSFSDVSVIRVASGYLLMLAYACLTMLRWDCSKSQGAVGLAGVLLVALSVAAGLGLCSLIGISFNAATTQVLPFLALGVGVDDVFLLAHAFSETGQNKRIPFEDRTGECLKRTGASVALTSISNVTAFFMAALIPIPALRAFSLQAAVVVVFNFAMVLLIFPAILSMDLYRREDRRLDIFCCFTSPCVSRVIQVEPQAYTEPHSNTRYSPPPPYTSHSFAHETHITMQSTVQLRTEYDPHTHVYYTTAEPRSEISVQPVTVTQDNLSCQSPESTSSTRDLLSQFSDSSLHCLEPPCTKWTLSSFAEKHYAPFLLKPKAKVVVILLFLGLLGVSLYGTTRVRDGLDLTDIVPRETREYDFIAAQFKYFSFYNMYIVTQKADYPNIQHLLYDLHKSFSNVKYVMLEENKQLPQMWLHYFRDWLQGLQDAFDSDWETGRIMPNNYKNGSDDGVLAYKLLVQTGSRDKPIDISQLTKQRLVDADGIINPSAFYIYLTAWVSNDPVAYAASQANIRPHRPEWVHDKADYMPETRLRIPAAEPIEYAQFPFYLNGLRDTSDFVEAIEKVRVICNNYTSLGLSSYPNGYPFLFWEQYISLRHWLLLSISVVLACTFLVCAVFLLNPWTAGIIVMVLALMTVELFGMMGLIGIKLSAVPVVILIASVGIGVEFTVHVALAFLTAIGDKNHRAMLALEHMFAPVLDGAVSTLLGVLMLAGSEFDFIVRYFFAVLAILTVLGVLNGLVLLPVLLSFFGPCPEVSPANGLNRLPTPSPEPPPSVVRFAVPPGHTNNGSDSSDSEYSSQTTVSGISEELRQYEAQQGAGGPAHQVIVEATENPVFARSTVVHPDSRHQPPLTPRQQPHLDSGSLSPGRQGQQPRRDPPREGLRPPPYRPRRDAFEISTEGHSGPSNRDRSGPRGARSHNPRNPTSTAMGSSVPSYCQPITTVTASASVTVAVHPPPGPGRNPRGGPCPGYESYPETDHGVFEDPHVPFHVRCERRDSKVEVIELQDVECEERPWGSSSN


Legend:
[1] = biological target: T2, Ptc (patched receptor) of the cells of chicken intermediate neural plate explants; assay: cell-based or functional assay
[2] = biological target: T2, Ptc (patched receptor) of the cells of …; assay: cell-based or functional assay; remark: listed apart in the source
[3] = biological target: T1, full-length mouse Ptc (patched receptor); assay: competition of the disuccinimidyl suberate crosslinking of 32P-Shh-N to Ptc-expressing EcR-293 cells

T2 sequence (Q90693 whole entry): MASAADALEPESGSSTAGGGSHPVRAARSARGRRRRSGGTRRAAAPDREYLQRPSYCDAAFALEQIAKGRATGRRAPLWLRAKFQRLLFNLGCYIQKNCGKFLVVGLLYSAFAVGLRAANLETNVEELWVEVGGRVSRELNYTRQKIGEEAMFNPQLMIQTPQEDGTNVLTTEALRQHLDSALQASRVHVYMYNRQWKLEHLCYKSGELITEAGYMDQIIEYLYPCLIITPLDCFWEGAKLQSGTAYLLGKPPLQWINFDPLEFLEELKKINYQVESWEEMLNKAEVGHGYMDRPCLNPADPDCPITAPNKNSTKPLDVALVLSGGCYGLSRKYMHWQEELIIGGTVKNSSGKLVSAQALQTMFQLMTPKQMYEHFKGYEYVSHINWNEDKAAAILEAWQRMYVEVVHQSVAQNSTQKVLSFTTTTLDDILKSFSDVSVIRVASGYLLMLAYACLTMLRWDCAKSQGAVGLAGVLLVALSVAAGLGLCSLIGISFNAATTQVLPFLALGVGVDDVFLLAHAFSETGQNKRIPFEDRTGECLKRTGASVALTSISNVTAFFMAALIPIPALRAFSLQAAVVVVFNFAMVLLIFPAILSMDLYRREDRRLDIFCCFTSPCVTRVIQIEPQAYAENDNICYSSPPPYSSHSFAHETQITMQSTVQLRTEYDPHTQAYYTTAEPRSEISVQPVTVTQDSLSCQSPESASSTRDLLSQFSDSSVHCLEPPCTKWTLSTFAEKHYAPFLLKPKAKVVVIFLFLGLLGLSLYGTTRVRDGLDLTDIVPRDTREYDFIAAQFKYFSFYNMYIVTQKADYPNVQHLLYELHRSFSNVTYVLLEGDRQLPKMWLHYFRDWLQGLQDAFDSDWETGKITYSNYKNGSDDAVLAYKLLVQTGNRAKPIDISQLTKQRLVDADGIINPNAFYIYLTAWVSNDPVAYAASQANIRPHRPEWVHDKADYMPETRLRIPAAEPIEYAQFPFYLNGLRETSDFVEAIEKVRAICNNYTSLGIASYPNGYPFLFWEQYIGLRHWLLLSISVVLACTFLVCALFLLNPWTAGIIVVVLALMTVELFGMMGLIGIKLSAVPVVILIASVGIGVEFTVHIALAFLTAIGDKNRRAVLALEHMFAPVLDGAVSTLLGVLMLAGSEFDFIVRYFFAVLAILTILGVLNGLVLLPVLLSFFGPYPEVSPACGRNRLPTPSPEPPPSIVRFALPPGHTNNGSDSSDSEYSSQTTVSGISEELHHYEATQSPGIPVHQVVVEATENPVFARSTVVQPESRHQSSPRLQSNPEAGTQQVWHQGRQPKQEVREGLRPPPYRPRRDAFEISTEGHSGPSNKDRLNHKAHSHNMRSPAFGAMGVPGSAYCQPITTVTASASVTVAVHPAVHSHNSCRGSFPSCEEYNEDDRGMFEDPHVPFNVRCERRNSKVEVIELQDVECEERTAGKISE

Row | HNF-3β induction, nM (minimum concentration for uniform induction, chicken neural plate explants) [1] [nM] | Pax-7 repression, nM (minimum concentration for complete repression, chicken neural plate explants) [1] [nM] | reduction in neural plate signaling activity against wild type [2] [fold] | binding result [3] | Binder
1 | ≥ 100 | ~70 |  |  | Shh-N SF protein (R154A, S157A) (ligand) not shown
2 | ≥ 20 | ~10 | ~2.5 |  | Shh-N SD altered protein (E90A, D132A, E138A) (ligand) not shown
3 | ≤ 20 | ~4 |  |  | Shh-N SA altered protein (K75A, E76A, Y81A, D105A, N116A, E189A, K195A) (ligand) not shown
4 | ≥ 20 | ~4 |  |  | Shh-N SB altered protein (N51A, V52A, T56A, E168A) (ligand) not shown
5 | > 1000 | > 1000 |  | no binding | Shh-N SC mutant protein (P42A, K46A, R154A, S157A, S178A, K179A) (ligand, Limits of the entry not visible; also called SC altered protein) not shown
6 | ≥ 20 | ~10 |  |  | Shh-N H135A, E177A double mutant (EH) protein (ligand) not shown
7 | ~100 | ~30 |  |  | Shh-N SG protein (S178A, K179A) (ligand) not shown
8 | ~100 | ~20 |  |  | Shh-N SE protein (P42A, K46A) (ligand) not shown
